Reference: patent publication US20260242735A1 (UNIVERSIT T BASEL, published 2026)
Each block holds one binder with its values, some of them ahead of it.

Experiments:
Experiment in all cases: alanine scan, flow cytometry;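 further: HEK293-T cells transiently expressing single-residue alanine mutants of CD33 (alanine swapped to serine), antibody binding read by fluorescence in duplicate, background-subtracted, expressed relative to wild-type CD33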
human CD33 W22A = human CD33 W22A (human, UniProt P20138 18-364)
Protocol: (§1) An alanine scan on human CD33 was performed to the determine the residues on CD33 that are involved in binding to the antibodies investigated. […] Briefly, a mutation library of CD33 was created by high-throughput, site-directed mutagenesis. Each residue was individually mutated to alanine, with alanine codons mutated to serine. The mutant library was arrayed in 384-well microplates and transiently transfected into HEK293-T. Following transfection, cells were incubated with the indicated antibodies (IgG or Fab) at concentrations pre-determined using an independent immunofluorescence titration curve on wild type CD33. […] Binding of each antibody to each mutant clone was determined in duplicates. For each point, background fluorescence was subtracted from the raw data, which were then normalized to antibody reactivity with wild type CD33.
(§2) Critical residues for antibody binding (outlined in dark grey) were residues whose mutations led to a binding of the test Abs of less than 20%. Additional secondary residues (outlined in light grey) were identified that led to a binding of the test Abs of between 20 and 40% as compared to the wild type CD33.

human CD33 L23A = human CD33 L23A (human, UniProt P20138 18-364)
human CD33 L23A, sequence (P20138 18-364 L23A limits assumed): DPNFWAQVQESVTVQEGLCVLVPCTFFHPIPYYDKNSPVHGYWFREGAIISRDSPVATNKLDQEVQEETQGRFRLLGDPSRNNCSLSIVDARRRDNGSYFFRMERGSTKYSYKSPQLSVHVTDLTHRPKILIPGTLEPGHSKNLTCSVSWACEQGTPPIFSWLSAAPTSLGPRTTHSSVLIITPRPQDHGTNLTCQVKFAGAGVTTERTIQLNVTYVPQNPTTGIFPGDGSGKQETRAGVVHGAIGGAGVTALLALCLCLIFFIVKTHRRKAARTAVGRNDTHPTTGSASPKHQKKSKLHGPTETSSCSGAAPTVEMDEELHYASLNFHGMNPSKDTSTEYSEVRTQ
Protocol: as §1, §2

human CD33 Q24A = human CD33 Q24A (human, UniProt P20138 18-364)
Protocol: as §1, §2

human CD33 V25A = human CD33 V25A (human, UniProt P20138 18-364)
human CD33 V25A, sequence (P20138 18-364 V25A limits assumed): as the sequence (P20138 18-364 L23A limits assumed) above, with A6L, V8A counted along it
Protocol: as §1, §2

human CD33 E27A = human CD33 E27A (human, UniProt P20138 18-364)
Protocol: as §1, §2

human CD33 V29A = human CD33 V29A (human, UniProt P20138 18-364)
human CD33 V29A, sequence (P20138 18-364 V29A limits assumed): as the sequence (P20138 18-364 L23A limits assumed) above, with A6L, V12A counted along it
Protocol: as §1, §2

human CD33 T30A = human CD33 T30A (human, UniProt P20138 18-364)
human CD33 T30A, sequence (P20138 18-364 T30A limits assumed): as the sequence (P20138 18-364 L23A limits assumed) above, with A6L, T13A counted along it
Protocol: as §1, §2

human CD33 Q32A = human CD33 Q32A (human, UniProt P20138 18-364)
Protocol: as §1, §2

human CD33 L38A = human CD33 L38A (human, UniProt P20138 18-364)
human CD33 L38A, sequence (P20138 18-364 L38A limits assumed): as the sequence (P20138 18-364 L23A limits assumed) above, with A6L, L21A counted along it
Protocol: as §1, §2

human CD33 T42A = human CD33 T42A (human, UniProt P20138 18-364)
Protocol: as §1, §2

human CD33 H45A = human CD33 H45A (human, UniProt P20138 18-364)
Protocol: as §1, §2

human CD33 P48A = human CD33 P48A (human, UniProt P20138 18-364)
human CD33 P48A, sequence (P20138 18-364 P48A limits assumed): as the sequence (P20138 18-364 L23A limits assumed) above, with A6L, P31A counted along it
Protocol: as §1, §2

human CD33 Y50A = human CD33 Y50A (human, UniProt P20138 18-364)
human CD33 Y50A, sequence (P20138 18-364 Y50A limits assumed): as the sequence (P20138 18-364 L23A limits assumed) above, with A6L, Y33A counted along it
Protocol: as §1, §2

human CD33 N53A = human CD33 N53A (human, UniProt P20138 18-364)
Protocol: as §1, §2

human CD33 S54A = human CD33 S54A (human, UniProt P20138 18-364)
Protocol: as §1, §2

human CD33 P55A = human CD33 P55A (human, UniProt P20138 18-364)
Protocol: as §1, §2

human CD33 H57A = human CD33 H57A (human, UniProt P20138 18-364)
Protocol: as §1, §2

human CD33 G58A = human CD33 G58A (human, UniProt P20138 18-364)
human CD33 G58A, sequence (P20138 18-364 G58A limits assumed): as the sequence (P20138 18-364 L23A limits assumed) above, with A6L, G41A counted along it
Protocol: as §1, §2

human CD33 Y59A = human CD33 Y59A (human, UniProt P20138 18-364)
Protocol: as §1, §2

human CD33 W60A = human CD33 W60A (human, UniProt P20138 18-364)
human CD33 W60A, sequence (P20138 18-364 W60A limits assumed): as the sequence (P20138 18-364 L23A limits assumed) above, with A6L, W43A counted along it
Protocol: as §1, §2

human CD33 E63A = human CD33 E63A (human, UniProt P20138 18-364)
Protocol: as §1, §2

human CD33 S68A = human CD33 S68A (human, UniProt P20138 18-364)
Protocol: as §1, §2

human CD33 R69A = human CD33 R69A (human, UniProt P20138 18-364)
human CD33 R69A, sequence (P20138 18-364 R69A limits assumed): as the sequence (P20138 18-364 L23A limits assumed) above, with A6L, R52A counted along it
Protocol: as §1, §2

human CD33 D70A = human CD33 D70A (human, UniProt P20138 18-364)
Protocol: as §1, §2

human CD33 S71A = human CD33 S71A (human, UniProt P20138 18-364)
Protocol: as §1, §2

human CD33 D18A = human CD33 D18A (human, UniProt P20138 19-364)
Protocol: as §1, §2

human CD33 T75A = human CD33 T75A (human, UniProt P20138 18-364)
Protocol: as §1, §2

human CD33 N76A = human CD33 N76A (human, UniProt P20138 18-364)
human CD33 N76A, sequence (P20138 18-364 N76A limits assumed): as the sequence (P20138 18-364 L23A limits assumed) above, with A6L, N59A counted along it
Protocol: as §1, §2

human CD33 K77A = human CD33 K77A (human, UniProt P20138 18-364)
human CD33 K77A, sequence (P20138 18-364 K77A limits assumed): as the sequence (P20138 18-364 L23A limits assumed) above, with A6L, K60A counted along it
Protocol: as §1, §2

human CD33 L78A = human CD33 L78A (human, UniProt P20138 18-364)
Protocol: as §1, §2

human CD33 D79A = human CD33 D79A (human, UniProt P20138 18-364)
Protocol: as §1, §2

human CD33 Q80A = human CD33 Q80A (human, UniProt P20138 18-364)
Protocol: as §1, §2

human CD33 E81A = human CD33 E81A (human, UniProt P20138 18-364)
Protocol: as §1, §2

human CD33 P19A = human CD33 P19A (human, UniProt P20138 18-364)
Protocol: as §1, §2

human CD33 V82A = human CD33 V82A (human, UniProt P20138 18-364)
Protocol: as §1, §2

human CD33 Q83A = human CD33 Q83A (human, UniProt P20138 18-364)
Protocol: as §1, §2

human CD33 E84A = human CD33 E84A (human, UniProt P20138 18-364)
Protocol: as §1, §2

human CD33 E85A = human CD33 E85A (human, UniProt P20138 18-364)
Protocol: as §1, §2

human CD33 T86A = human CD33 T86A (human, UniProt P20138 18-364)
Protocol: as §1, §2

human CD33 Q87A = human CD33 Q87A (human, UniProt P20138 18-364)
Protocol: as §1, §2

human CD33 G88A = human CD33 G88A (human, UniProt P20138 18-364)
human CD33 G88A, sequence (P20138 18-364 G88A limits assumed): as the sequence (P20138 18-364 L23A limits assumed) above, with A6L, G71A counted along it
Protocol: as §1, §2

human CD33 F90A = human CD33 F90A (human, UniProt P20138 18-364)
human CD33 F90A, sequence (P20138 18-364 F90A limits assumed): as the sequence (P20138 18-364 L23A limits assumed) above, with A6L, F73A counted along it
Protocol: as §1, §2

Mean % WT Binding (human CD33 W22A): 79.4 % WT
Mean % WT Binding (human CD33 L23A): 82.7 % WT
Mean % WT Binding (human CD33 Q24A): 74.1 % WT
Mean % WT Binding (human CD33 V25A): 90.7 % WT
Mean % WT Binding (human CD33 E27A): 82.5 % WT
Mean % WT Binding (human CD33 V29A): 102 % WT
Mean % WT Binding (human CD33 T30A): 89.3 % WT
Mean % WT Binding (human CD33 Q32A): 87 % WT
Mean % WT Binding (human CD33 L38A): 94.8 % WT
Mean % WT Binding (human CD33 T42A): 105 % WT
Mean % WT Binding (human CD33 H45A): 38.7 % WT
Mean % WT Binding (human CD33 P48A): 86.2 % WT
Mean % WT Binding (human CD33 Y50A): 86 % WT
Mean % WT Binding (human CD33 N53A): 94.7 % WT
Mean % WT Binding (human CD33 S54A): 87.6 % WT
Mean % WT Binding (human CD33 P55A): 98.8 % WT
Mean % WT Binding (human CD33 H57A): 78.2 % WT
Mean % WT Binding (human CD33 G58A): 77.4 % WT
Mean % WT Binding (human CD33 Y59A): 93.6 % WT
Mean % WT Binding (human CD33 W60A): 0.7 % WT
Mean % WT Binding (human CD33 E63A): 107 % WT
Mean % WT Binding (human CD33 S68A): 91.3 % WT
Mean % WT Binding (human CD33 R69A): 94.2 % WT
Mean % WT Binding (human CD33 D70A): 81.3 % WT
Mean % WT Binding (human CD33 S71A): 108 % WT
Mean % WT Binding (human CD33 D18A): 78.6 % WT
Mean % WT Binding (human CD33 T75A): 101 % WT
Mean % WT Binding (human CD33 N76A): 61.8 % WT
Mean % WT Binding (human CD33 K77A): 95.6 % WT
Mean % WT Binding (human CD33 L78A): 87.4 % WT
Mean % WT Binding (human CD33 D79A): 88.1 % WT
Mean % WT Binding (human CD33 Q80A): 91.6 % WT
Mean % WT Binding (human CD33 E81A): 83 % WT
Mean % WT Binding (human CD33 P19A): 80.8 % WT
Mean % WT Binding (human CD33 V82A): 99.6 % WT
Mean % WT Binding (human CD33 Q83A): 87.1 % WT
Mean % WT Binding (human CD33 E84A): 92.2 % WT
Mean % WT Binding (human CD33 E85A): 88.9 % WT
Mean % WT Binding (human CD33 T86A): 79.1 % WT
Mean % WT Binding (human CD33 Q87A): 91 % WT
Mean % WT Binding (human CD33 G88A): 96.1 % WT
Mean % WT Binding (human CD33 F90A): 73.9 % WT
B1: Refmab #1 (antibody, V domains shown)
VH: EVQLVQSGAEVKKPGSSVKVSCKASGYTITDSNIHWVRQAPGQSLEWIGYIYPYNGGTDYNQKFKNRATLTVDNPTNTAYMELSSLRSEDTAFYYCVNGNPWLAYWGQGTLVTVSS
VL: DIQLTQSPSTLSASVGDRVTITCRASESLDNYGIRFLTWFQQKPGKAPKLLMYAASNQGSGVPSRFSGSGSGTEFTLTISSLQPDDFATYYCQQTKEVPWSFGQGTKVEVK
notes: Full-length format is human IgG1 (Absolute Antibody Ab00283-10.0); The alanine scan used IgG or Fab; also called hP67.6

Mean % WT Binding (human CD33 W22A): 187 % WT
Mean % WT Binding (human CD33 L23A): 23.7 % WT
Mean % WT Binding (human CD33 Q24A): 68.3 % WT
Mean % WT Binding (human CD33 V25A): 49.1 % WT
Mean % WT Binding (human CD33 E27A): 42.9 % WT
Mean % WT Binding (human CD33 V29A): 84.4 % WT
Mean % WT Binding (human CD33 T30A): 104 % WT
Mean % WT Binding (human CD33 Q32A): 83 % WT
Mean % WT Binding (human CD33 L38A): 96.8 % WT
Mean % WT Binding (human CD33 T42A): 67.4 % WT
Mean % WT Binding (human CD33 H45A): 134 % WT
Mean % WT Binding (human CD33 P48A): 8.4 % WT
Mean % WT Binding (human CD33 Y50A): 3.5 % WT
Mean % WT Binding (human CD33 N53A): 69 % WT
Mean % WT Binding (human CD33 S54A): 99.9 % WT
Mean % WT Binding (human CD33 P55A): 95.4 % WT
Mean % WT Binding (human CD33 H57A): 67.3 % WT
Mean % WT Binding (human CD33 G58A): 62.2 % WT
Mean % WT Binding (human CD33 Y59A): 97.6 % WT
Mean % WT Binding (human CD33 W60A): 1 % WT
Mean % WT Binding (human CD33 E63A): 84.1 % WT
Mean % WT Binding (human CD33 S68A): 90.4 % WT
Mean % WT Binding (human CD33 R69A): 118 % WT
Mean % WT Binding (human CD33 D70A): 82.7 % WT
Mean % WT Binding (human CD33 S71A): 99.4 % WT
Mean % WT Binding (human CD33 D18A): 110 % WT
Mean % WT Binding (human CD33 T75A): 93.8 % WT
Mean % WT Binding (human CD33 N76A): 34.7 % WT
Mean % WT Binding (human CD33 K77A): 123 % WT
Mean % WT Binding (human CD33 L78A): 111 % WT
Mean % WT Binding (human CD33 D79A): 74.5 % WT
Mean % WT Binding (human CD33 Q80A): 124 % WT
Mean % WT Binding (human CD33 E81A): 90.6 % WT
Mean % WT Binding (human CD33 P19A): 20.4 % WT
Mean % WT Binding (human CD33 V82A): 144 % WT
Mean % WT Binding (human CD33 Q83A): 104 % WT
Mean % WT Binding (human CD33 E84A): 120 % WT
Mean % WT Binding (human CD33 E85A): 110 % WT
Mean % WT Binding (human CD33 T86A): 103 % WT
Mean % WT Binding (human CD33 Q87A): 94.2 % WT
Mean % WT Binding (human CD33 G88A): 97.7 % WT
Mean % WT Binding (human CD33 F90A): 82.3 % WT
B2: Refmab #4 (antibody, V domains shown)
VH: QVQLVQSGAEVKKPGESVKVSCKASGYTFTNYGMNWVKQAPGQGLEWMGWINTYTGEPTYADKFQGRVTMTTDTSTSTAYMEIRNLGGDDTAVYYCARWSWSDGYYVYFDYWGQGTSVTVSS
VL: DIVMTQSPDSLTVSLGERTTINCKSSQSVLDSSTNKNSLAWYQQKPGQPPKLLLSWASTRESGIPDRFSGSGSGTDFTLTIDSPQPEDSATYYCQQSAHFPITFGQGTRLEIK
notes: Full-length format is human IgG1 Fc silent (PG-LALA); The alanine scan used IgG or Fab

Mean % WT Binding (human CD33 W22A): 58.6 % WT
Mean % WT Binding (human CD33 L23A): 91.5 % WT
Mean % WT Binding (human CD33 Q24A): 101 % WT
Mean % WT Binding (human CD33 V25A): 109 % WT
Mean % WT Binding (human CD33 E27A): 153 % WT
Mean % WT Binding (human CD33 V29A): 115 % WT
Mean % WT Binding (human CD33 T30A): 104 % WT
Mean % WT Binding (human CD33 Q32A): 133 % WT
Mean % WT Binding (human CD33 L38A): 192 % WT
Mean % WT Binding (human CD33 T42A): 198 % WT
Mean % WT Binding (human CD33 H45A): 55.1 % WT
Mean % WT Binding (human CD33 P48A): 167 % WT
Mean % WT Binding (human CD33 Y50A): 109 % WT
Mean % WT Binding (human CD33 N53A): 116 % WT
Mean % WT Binding (human CD33 S54A): 106 % WT
Mean % WT Binding (human CD33 P55A): 142 % WT
Mean % WT Binding (human CD33 H57A): 182 % WT
Mean % WT Binding (human CD33 G58A): 87.4 % WT
Mean % WT Binding (human CD33 Y59A): 145 % WT
Mean % WT Binding (human CD33 W60A): 28.3 % WT
Mean % WT Binding (human CD33 E63A): 124 % WT
Mean % WT Binding (human CD33 S68A): 115 % WT
Mean % WT Binding (human CD33 R69A): 188 % WT
Mean % WT Binding (human CD33 D70A): 131 % WT
Mean % WT Binding (human CD33 S71A): 118 % WT
Mean % WT Binding (human CD33 D18A): 37.8 % WT
Mean % WT Binding (human CD33 T75A): 118 % WT
Mean % WT Binding (human CD33 N76A): 148 % WT
Mean % WT Binding (human CD33 K77A): 192 % WT
Mean % WT Binding (human CD33 L78A): 113 % WT
Mean % WT Binding (human CD33 D79A): 105 % WT
Mean % WT Binding (human CD33 Q80A): 123 % WT
Mean % WT Binding (human CD33 E81A): 114 % WT
Mean % WT Binding (human CD33 P19A): 75.2 % WT
Mean % WT Binding (human CD33 V82A): 141 % WT
Mean % WT Binding (human CD33 Q83A): 103 % WT
Mean % WT Binding (human CD33 E84A): 137 % WT
Mean % WT Binding (human CD33 E85A): 112 % WT
Mean % WT Binding (human CD33 T86A): 112 % WT
Mean % WT Binding (human CD33 Q87A): 161 % WT
Mean % WT Binding (human CD33 G88A): 88.3 % WT
Mean % WT Binding (human CD33 F90A): 138 % WT
B3: Refmab #3 (antibody, V domains shown)
VH: QVQLVQSGAEVKKPGSSVKVSCKASGYTFTDYNMHWVRQAPGQGLEWIGYIYPYNGGTGYNQKFKSKATITADESTNTAYMELSSLRSEDTAVYYCARGRPAMDYWGQGTLVTVSS
VL: DIQMTQSPSSLSASVGDRVTITCRASESVDNYGISFMNWFQQKPGKAPKLLIYAASNQGSGVPSRFSGSGSGTDFTLTISSLQPDDFATYYCQQSKEVPWTFGQGTKVEIK
notes: as for B2
